Paper PMC11241375, “In Silico Screening of Bioactive Peptides in Stout Beer and Analysis of ACE Inhibitory Activity” (Foods, 2024)
Read-outs that look alike come from different tables or passages of the source. No end group written: not given here.

Tests used:
ACE [1] = target: T1, ACE (Homo sapiens, UniProt P12821); conditions: cited from earlier work
T1 construct: purchased Sigma-Aldrich
Description: Recently, several ACEI peptides have been identified and evaluated in brewed wine. Wu et al. discovered a polypeptide in Chinese Baijiu for the first time, which indicated an ACE inhibitory effect with an IC50 of […] [11]. […] Beer is one of the most globally cons ... || In this study, peptides in stout beer were identified using UPLC-Q-Orbitrap-MS^2, and a total of 41 peptides with ALC ≥ 85% were selected (Table 1). The peptides PMAPLPRSGPE and […] from Italian beer, LPQQQAQFK, STEWHLD, PPPVHD, LVLPGELAK, LAVMQQQQQQ, PPPVHDTD, PPVPHDTD, LPEDAKVE, HAVSEGTKAVT, LPGELAK, PMAPLPRSGEP, TVSGF, LNFDPNR, LALDTRVG, LDTRVGV, and RVALVY from draft beer, which were previously identified, also appeared in our results. The polypeptides present in beer primarily originate from malt protein. Previous studies have shown that the soluble protein content in m ...

ACE [2] = target: T1, ACE; experiment: ACEI activity in vitro (ACE activity assay kit); format: biochemical; conditions: 10 μL ACE + 40 μL inhibitor + 50 μL substrate, fluorescence ex 320 nm/em 405 nm, 37 °C, 30 min, synthesized peptide, triplicate, mean ± SD
Experimental: ACEI activity determination was determined using an assay kit. Briefly, 10 μL of ACE and 40 μL of the inhibitor were added to the microplate and mixed thoroughly, then 50 μL of the substrate was added to start the reaction. The fluorescence was detected at an excitation wavelength of 320 nm and an emission wavelength of 405 nm at 37 °C for 30 min. The ACE activity of the peptide was calculated as follows:ACEI activity = [(KStd − KSample)/KStd] × DF × 100% where KSample means the slope of the sample curve after subtracting the blank. (RFU/min); KStd means the slope of the standard curve after subtracting the blank (RFU/min); DF means the dilution factor.
Each experiment was conducted in triplicate, the data were presented as mean ± standard deviation. SYBYL-X 2.1.1 software was utilized for evaluating the molecular docking visualization. LigPlot 1.4.5 software was employed to illustrate the 2D interactions. MD simulation data analysis was performed using GROMACS 2022.3 software.

[3] = known ACEI peptides in BIOPEP/AHTPDB
[4] = peptides identified from Qingke Baijiu

T1 sequence (P12821 30-1306, species assumed): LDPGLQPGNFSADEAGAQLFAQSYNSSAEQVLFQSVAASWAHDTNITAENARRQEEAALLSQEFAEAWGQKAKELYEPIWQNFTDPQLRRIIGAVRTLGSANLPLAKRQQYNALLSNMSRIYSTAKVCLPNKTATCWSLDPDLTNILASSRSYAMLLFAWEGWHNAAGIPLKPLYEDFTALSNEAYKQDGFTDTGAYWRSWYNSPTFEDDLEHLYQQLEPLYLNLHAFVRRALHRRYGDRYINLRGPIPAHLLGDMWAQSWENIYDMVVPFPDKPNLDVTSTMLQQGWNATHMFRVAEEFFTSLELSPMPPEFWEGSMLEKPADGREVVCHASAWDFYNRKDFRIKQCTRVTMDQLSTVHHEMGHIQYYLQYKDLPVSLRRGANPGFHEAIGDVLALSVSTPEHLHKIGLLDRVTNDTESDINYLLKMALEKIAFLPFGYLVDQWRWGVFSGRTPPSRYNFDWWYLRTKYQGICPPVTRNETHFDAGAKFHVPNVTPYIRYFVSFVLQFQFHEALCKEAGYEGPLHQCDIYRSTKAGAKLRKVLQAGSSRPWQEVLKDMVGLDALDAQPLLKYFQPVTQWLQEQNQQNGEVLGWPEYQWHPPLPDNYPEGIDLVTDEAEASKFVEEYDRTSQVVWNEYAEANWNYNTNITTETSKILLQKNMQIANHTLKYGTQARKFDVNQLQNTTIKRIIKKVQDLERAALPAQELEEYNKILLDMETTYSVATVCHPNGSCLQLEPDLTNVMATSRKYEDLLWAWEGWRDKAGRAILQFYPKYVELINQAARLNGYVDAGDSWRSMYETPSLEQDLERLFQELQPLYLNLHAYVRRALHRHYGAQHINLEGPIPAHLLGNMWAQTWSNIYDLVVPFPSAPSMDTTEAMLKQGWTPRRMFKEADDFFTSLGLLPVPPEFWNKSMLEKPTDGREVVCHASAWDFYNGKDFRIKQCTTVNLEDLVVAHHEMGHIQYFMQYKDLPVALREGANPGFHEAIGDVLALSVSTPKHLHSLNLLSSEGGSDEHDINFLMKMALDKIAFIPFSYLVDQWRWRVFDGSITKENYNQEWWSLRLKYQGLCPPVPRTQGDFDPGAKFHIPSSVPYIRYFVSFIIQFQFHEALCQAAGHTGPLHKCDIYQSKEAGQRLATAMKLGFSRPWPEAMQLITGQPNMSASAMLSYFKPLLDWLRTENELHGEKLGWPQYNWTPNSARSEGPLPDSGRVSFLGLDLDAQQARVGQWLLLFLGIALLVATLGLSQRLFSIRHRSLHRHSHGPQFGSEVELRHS

Row | Substance | IC50 (ACE [1]; [3]) [µM] | IC50 (ACE [1]; [4]) [µM] | other results
1 | LNFDPNR [peptide of stout beer; already known ACEI peptide] | 38.6 | – | –
2 | LPQQQAQFK [peptide of stout beer; already known ACEI peptide] | 26.4 | – | –
3 | FPLQPHQP [peptide from Qingke Baijiu, reference compound] | – | 5.03 | –
4 | LPVGP [peptide from Qingke Baijiu, reference compound] | – | 9.05 | –
5 | DLGGFFGFQR [DLGGFFGFQR] | – | – | IC50 (ACE [2]): 24.5 µM
